Experimental data as given in the supplement of paper PMC12764529.
± gives the half width of the 95% confidence interval.

Tests used:
[1] = folding stability dG unfold from trypsin proteolysis; higher = more stable
How it was run: (§1)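 Designed mini-proteins with no cysteine and under 80 residues were kept only if AlphaFold2 dimer inter-PAE was above 15. In a PA-tagged cDNA display construct, they were digested with trypsin and chymotrypsin and then sequenced. K50 was inferred by Bayesian fitting of counts, and unfolding free energy was derived per protease or combined against a sequence-predicted unfolded-state K50 and a shared folded-state K50.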

[2] = folding stability dG unfold from chymotrypsin proteolysis; higher = more stable
How it was run: as §1

[3] = folding stability dG unfold (combined trypsin and chymotrypsin); higher = more stable
How it was run: as §1

Sequence: SAGGSAPVVVVVTPKNGKPIKLKFKFTKKEEAEAAVEEIKKALPKNTKVEAFYVDEEVVKEDKEYLSAGGSA [r15_469_TrMRF]
- folding stability dG unfold [1]: 1.16 ± 0.017 kcal/mol
- folding stability dG unfold [2]: 1.97 ± 0.068 kcal/mol
- folding stability dG unfold [3]: 1.71 ± 0.054 kcal/mol

Sequence: SAGGSARVVILPDGYLLVEVDGKPFLFGPNDEVEIEEEGDELILRLRLRDKDGKEVGEFPFRFRLESAGGSA [r15_424_TrMRF]
- folding stability dG unfold [1]: 2.71 ± 0.039 kcal/mol
- folding stability dG unfold [2]: 3.026 ± 0.016 kcal/mol
- folding stability dG unfold [3]: 2.9 ± 0.055 kcal/mol

Sequence: SAGGSASAEEAARAFVAAHPDRALVEVEIERSFIPEKGVEVVTLTVTLAFPDGSRRVVPVTVTRPRSAGGSA [r15_266_JUSTAS]
- folding stability dG unfold [1]: 1.11 ± 0.044 kcal/mol
- folding stability dG unfold [2]: 1.06 ± 0.044 kcal/mol
- folding stability dG unfold [3]: 1.13 ± 0.071 kcal/mol

Sequence: SAGGSASIEIPVGDKPVRIEILSLEPEGERVRARAVVYFPDDPEYREISGDLTLEELIDAILEAIGSAGGSA [r15_944_TrMRF]
- folding stability dG unfold [1]: 1.3 ± 0.016 kcal/mol
- folding stability dG unfold [2]: 1.148 ± 0.011 kcal/mol
- folding stability dG unfold [3]: 1.21 ± 0.074 kcal/mol

Sequence: SAGGSASIGEELAKELFPDLPLKVEPKEVPLEDGKTETVVTATFPDGKKVTITFEGDKIVEVTEVESAGGSA [r15_417_JUSTAS]
- folding stability dG unfold [1]: 0.445 ± 0.095 kcal/mol
- folding stability dG unfold [2]: 0.994 ± 0.074 kcal/mol
- folding stability dG unfold [3]: 0.718 ± 0.11 kcal/mol

Sequence: SAGGSASLEEVIESVTKPLGAKGEIDPETGVTYVQDPSGENLTLETEDGRPLKVTYEPEGKWTAVESAGGSA [r15_256_JUSTAS]
- folding stability dG unfold [1]: 0.301 ± 0.046 kcal/mol
- folding stability dG unfold [2]: -0.199 ± 0.45 kcal/mol
- folding stability dG unfold [3]: 0.24 ± 0.28 kcal/mol

Sequence: SAGGSASLQTSTASVSPGALEKAIEAAKAAPPGTAVSVSFGDPVVGTPRPVTLTVDSAGNLVEITGSAGGSA [r15_228_JUSTAS]
- folding stability dG unfold [1]: 0.376 ± 0.029 kcal/mol
- folding stability dG unfold [2]: 0.0446 ± 0.08 kcal/mol
- folding stability dG unfold [3]: 0.188 ± 0.097 kcal/mol

Sequence: SAGGSASMGVSVAAIAEALDAARPAGAPPLVYVKLPNGEVVRVSPDESLTSISPEGEVEIEIRFLPSAGGSA [r15_50_JUSTAS]
- folding stability dG unfold [1]: 0.907 ± 0.018 kcal/mol
- folding stability dG unfold [2]: 0.81 ± 0.022 kcal/mol
- folding stability dG unfold [3]: 0.878 ± 0.04 kcal/mol

Sequence: SAGGSASMIFADDPAQAEAYVKPLFPNGPPFDIVELSEEEGKELVEKLKKEGKPYKVIVIKDPSKPSAGGSA [r15_567_JUSTAS]
- folding stability dG unfold [1]: 0.192 ± 0.19 kcal/mol
- folding stability dG unfold [2]: 0.507 ± 0.42 kcal/mol
- folding stability dG unfold [3]: 0.341 ± 0.3 kcal/mol

Sequence: SAGGSASMSNVTSYVTVYKKPGVDDLYYKVRILAPSEPKVIEIPESEIPKYEKEGIKIEKVSEELLSAGGSA [r15_783_JUSTAS]
- folding stability dG unfold [1]: 0.901 ± 0.36 kcal/mol
- folding stability dG unfold [2]: 1.96 ± 0.32 kcal/mol
- folding stability dG unfold [3]: 1.28 ± 0.34 kcal/mol

Sequence: SAGGSASPVLTTVTFPGSPEELEAYAAEVRAAGTLLSVSFSPSPDPSYYTITLQVRAPDGTYFTAESAGGSA [r15_177_JUSTAS]
- folding stability dG unfold [1]: 1.14 ± 0.03 kcal/mol
- folding stability dG unfold [2]: 1.55 ± 0.083 kcal/mol
- folding stability dG unfold [3]: 1.39 ± 0.061 kcal/mol

Sequence: SAGGSASSMTTTKKLSTGEKSVVELSTSPSTVTLVTTDPETGTVTVTTYTPSGTGPVATTTTVPAPSAGGSA [r15_137_JUSTAS]
- folding stability dG unfold [1]: -0.431 ± 0.13 kcal/mol
- folding stability dG unfold [2]: 0.499 ± 0.14 kcal/mol
- folding stability dG unfold [3]: 0.177 ± 0.097 kcal/mol

Sequence: SAGGSASTYEPEVYTFTGKNKKIKVIVVKPKDNPTAKIIVYDENGNVLATIEFPAENVEKALKELASAGGSA [r15_940_TrMRF]
- folding stability dG unfold [1]: 2.02 ± 0.029 kcal/mol
- folding stability dG unfold [2]: 2.12 ± 0.064 kcal/mol
- folding stability dG unfold [3]: 2.1 ± 0.083 kcal/mol

Sequence: SAGGSASVKVEITEIKSSNPESSSNKIDIPVKVYDPETGKEVLSVEEIAKKIEEENPGKPVGYVPESAGGSA [r2_27_JUSTAS]
- folding stability dG unfold [1]: 0.293 ± 0.093 kcal/mol
- folding stability dG unfold [2]: 0.0963 ± 0.17 kcal/mol
- folding stability dG unfold [3]: 0.281 ± 0.17 kcal/mol

Sequence: SAGGSASVLEEAIEEAKKLPPGSVVPLTVTVPTDGEPVVYEILITVHPGENTIEVEKKRKFSPERLSAGGSA [r15_724_JUSTAS]
- folding stability dG unfold [1]: -0.411 ± 0.14 kcal/mol
- folding stability dG unfold [2]: 0.779 ± 0.1 kcal/mol
- folding stability dG unfold [3]: 0.439 ± 0.095 kcal/mol

Sequence: SAGGSASVSDVTTTTVTVTVEVTEDPATGLQRLTATHPDLSFERLVPAGTIPADTTVTLDVTVTTGSAGGSA [r15_190_JUSTAS]
- folding stability dG unfold [1]: 0.0934 ± 0.028 kcal/mol
- folding stability dG unfold [2]: 0.452 ± 0.014 kcal/mol
- folding stability dG unfold [3]: 0.322 ± 0.046 kcal/mol

Sequence: SAGGSASVVLPNATVEELKEAVEKGAKEIVVVSPDPARAATIKAEIEKLHDTPVKVLTPEEAAALESAGGSA [r15_243_JUSTAS]
- folding stability dG unfold [1]: -0.205 ± 0.037 kcal/mol
- folding stability dG unfold [2]: 1.32 ± 0.035 kcal/mol
- folding stability dG unfold [3]: 0.907 ± 0.055 kcal/mol

Sequence: SAGGSATIEEIAQEIADNLPPGRKYRAKIYYDGEERTYEFRNPNGFKINITWKNGKIRSIDIEPRPSAGGSA [r15_175_TrROS]
- folding stability dG unfold [1]: 1.63 ± 0.046 kcal/mol
- folding stability dG unfold [2]: 2.01 ± 0.16 kcal/mol
- folding stability dG unfold [3]: 1.94 ± 0.17 kcal/mol
